According to the Human Domainome abundance scans (Beltran et al. 2025):
± gives the uncertainty stated by the source.

B1: WW domain-containing transcription regulator protein 1, residues 116 to 162; numbered along this chain, Q9GZV5 (parent)
chain: QSYDVTDELPLPPGWEMTFTATGQRYFLNHIEKITTWQDPRKAMNQP

Variants of: B1
Assay: abundance fitness (aPCA) (normalised: wild type 0, dead -1); higher = more abundant; growth selection in yeast, the domain comes from the species named
Settings: Homo sapiens

Variant	abundance fitness
I34V	-0.102 ± 0.031
I34H	-0.324 ± 0.059
I34C	-0.078 ± 0.035
I34G	-0.634 ± 0.029
I34Q	-0.158 ± 0.028
I34P	-0.813 ± 0.034
I34A	-0.304 ± 0.031
I34R	-0.223 ± 0.029
I34L	-0.089 ± 0.027
I34K	-0.35 ± 0.067
I34T	-0.047 ± 0.048
I34D	-0.454 ± 0.051
I34N	-0.343 ± 0.063
I34Y	-0.172 ± 0.054
I34M	-0.15 ± 0.045
I34E	-0.265 ± 0.028
I34F	0.014 ± 0.026
H30Y	-0.338 ± 0.052
H30R	-0.075 ± 0.029
H30N	-0.088 ± 0.049
H30V	-0.226 ± 0.025
H30P	-0.218 ± 0.041
H30T	-0.106 ± 0.034
H30M	-0.259 ± 0.026

Variant	abundance fitness
H30W	-0.378 ± 0.038
H30Q	-0.076 ± 0.033
H30S	-0.091 ± 0.027
W37A	-0.376 ± 0.028
W37C	-0.52 ± 0.065
W37H	-0.402 ± 0.04
W37L	-0.296 ± 0.026
W37F	-0.047 ± 0.041
W37Q	-0.328 ± 0.042
W37M	-0.265 ± 0.041
W37V	-0.348 ± 0.034
W37Y	-0.073 ± 0.047
W37E	-0.244 ± 0.032
W37R	-0.392 ± 0.03
W37K	-0.305 ± 0.026
W37S	-0.324 ± 0.029
W37D	-0.481 ± 0.057
W37P	-0.51 ± 0.044
W37N	-0.364 ± 0.051
K33M	-0.284 ± 0.038
K33A	-0.209 ± 0.025
K33Y	-0.733 ± 0.084
K33N	-0.041 ± 0.027
K33V	-0.905 ± 0.03

Variant	abundance fitness
K33S	-0.177 ± 0.029
K33Q	-0.139 ± 0.038
K33F	-0.683 ± 0.074
K33H	-0.2 ± 0.04
K33C	-0.198 ± 0.038
K33L	-0.558 ± 0.028
K33P	-0.942 ± 0.066
K33R	-0.063 ± 0.025
K33D	-0.517 ± 0.03
K33G	0.122 ± 0.024
K33I	-1.01 ± 0.083
K33T	-0.483 ± 0.031
I31P	-0.331 ± 0.23
I31G	-0.273 ± 0.063
I31Y	-0.166 ± 0.1
I31W	-0.08 ± 0.067
I31A	-0.174 ± 0.068
I31V	-0.094 ± 0.074
I31R	-0.06 ± 0.06
I31S	-0.182 ± 0.099
I31L	-0.375 ± 0.16
I31F	-0.14 ± 0.16
I31N	-0.162 ± 0.23
I31T	-0.011 ± 0.083

Variant	abundance fitness
T35M	-0.47 ± 0.04
T35F	-0.566 ± 0.037
T35H	-0.56 ± 0.039
T35Q	-0.675 ± 0.069
T35I	-0.419 ± 0.05
T35W	-0.581 ± 0.029
T35P	-0.899 ± 0.081
T35K	-0.433 ± 0.056
T35Y	-0.413 ± 0.068
T35C	-0.236 ± 0.045
T35N	-0.57 ± 0.039
T35S	-0.072 ± 0.028
T35L	-0.7 ± 0.044
T35G	-0.493 ± 0.033
T35E	-0.382 ± 0.041
T35D	-0.728 ± 0.067
T36D	-0.816 ± 0.073
T36E	-0.722 ± 0.031
T36R	-0.858 ± 0.058
T36G	-0.775 ± 0.038
T36Y	-0.992 ± 0.21
T36N	-0.754 ± 0.09
T36W	-0.986 ± 0.066
T36S	-0.224 ± 0.044

Variant	abundance fitness
T36F	-1.05 ± 0.28
T36A	-0.377 ± 0.04
T36I	-0.831 ± 0.088
T36C	-0.305 ± 0.052
T36H	-1.03 ± 0.09
T36K	-0.954 ± 0.12
T36L	-1.02 ± 0.1
T36Q	-0.376 ± 0.051
T36M	-0.532 ± 0.033
T36V	-0.736 ± 0.04
D39Q	-0.911 ± 0.16
D39E	-0.536 ± 0.077
D39K	-0.736 ± 0.077
D39S	-0.719 ± 0.035
D39T	-0.761 ± 0.047
D39Y	-0.709 ± 0.068
D39C	-0.572 ± 0.066
D39F	-0.618 ± 0.059
D39L	-0.599 ± 0.042
D39M	-0.789 ± 0.072
D39G	-0.747 ± 0.055
D39I	-0.469 ± 0.051
D39H	-0.202 ± 0.055
D39P	-0.588 ± 0.065

Variant	abundance fitness
D39R	-0.452 ± 0.031
D39V	-0.721 ± 0.065
E32Q	0.033 ± 0.031
E32A	0.028 ± 0.025
E32H	-0.05 ± 0.048
E32R	0.004 ± 0.024
E32I	-0.055 ± 0.04
E32G	-0.091 ± 0.025
E32L	0.201 ± 0.024
E32Y	0.054 ± 0.049
E32F	0.122 ± 0.046
E32D	-0.072 ± 0.045
E32S	-0.02 ± 0.025
E32P	-0.805 ± 0.045
E32K	0.006 ± 0.042
E32W	0.094 ± 0.028
E32M	0.072 ± 0.045
E32V	-0.19 ± 0.025
E32C	-0.053 ± 0.035
E32T	-0.017 ± 0.033
Q38T	-0.095 ± 0.031
Q38P	-0.879 ± 0.073
Q38F	-0.086 ± 0.042
Q38V	-0.108 ± 0.036

Variant	abundance fitness
Q38K	-0.037 ± 0.035
Q38H	-0.096 ± 0.048
Q38G	-0.264 ± 0.028
Q38N	-0.104 ± 0.032
Q38W	-0.112 ± 0.033
Q38A	-0.103 ± 0.032
Q38R	-0.017 ± 0.023
Q38L	-0.031 ± 0.025
Q38C	-0.085 ± 0.025
Q38S	-0.109 ± 0.026
Q38D	-0.129 ± 0.033
Q38I	0.005 ± 0.045
Q38E	-0.117 ± 0.027
Q38M	-0.044 ± 0.028
P40E	-0.757 ± 0.086
P40K	-0.834 ± 0.13
P40D	-0.914 ± 0.14
P40H	-0.988 ± 0.17
P40C	-0.92 ± 0.17
P40I	-0.97 ± 0.17
P40A	-0.767 ± 0.077
P40F	-1.09 ± 0.4
P40L	-0.987 ± 0.06
